We go through 41 variants from the RNAGym collection of RNA variant scans (doi:10.7554/elife.90254).

B1: OR4K15 (parent)
chain: GUUAACGGUCAUAGGCCAUGGAAACUAGGAGCACCAUUUCGCUGCCAGUGAAGAAAUGAACAAAGAAAAUCUGGGCCAGGCAGGCAUCAAAAGAAAUAGUCUUGCGCUCAACCAGAAAGUCUGUAAUCAUUUUAAGGGUA

The data set covers variants of B1. In words: self-cleavage, relative activity (ratio to wild type); higher = more cleavage; in vitro, sequencing; the parent is a self-cleaving ribozyme.
As to UUUAACGGUCAUAGGCCAUGGAAACUAGGAGCACCAUUUCGCUGCCAGUGAAGAAAUGAACAAAGAAAAUCUGGGCCAGGCAGGCAUCAAAGGAAAUAGUCUUGCGCUCAACCAGAAAGUCUGUAAUCAUUUUAAGGGUA [G1U A92G], the self-cleavage came to 1.91. Under GAUAACGGUCAUAGGCCAUGGAAACUAGGAGCACCAUUUCGCUGCCAGUGAAGAAAUGAACAAAGAAAAUCUGGGCCAGGCAGGCAUCAAGAGAAAUAGUCUUGCGCUCAACCAGAAAGUCUGUAAUCAUUUUAAGGGUA [U2A A91G] stands 0.7; under UUUAACGGUCAUAGGCCAUGGAAACUAGGAGCACCAUUUCGCUGCCAGUGAGGAAAUGAACAAAGAAAAUCUGGGCCAGGCAGGCAUCAAAAGAAAUAGUCUUGCGCUCAACCAGAAAGUCUGUAAUCAUUUUAAGGGUA [G1U A52G], 1.83. GAUAACGGUCAUAGGCCAUGGAAACUAGGAGCACCAUUUCGCUGCCAGUGAAGAAAUGAACAUAGAAAAUCUGGGCCAGGCAGGCAUCAAAAGAAAUAGUCUUGCGCUCAACCAGAAAGUCUGUAAUCAUUUUAAGGGUA [U2A A63U]: the self-cleavage stood at 1.62. Under GAUAACGGUCAUAGGCCAUGGAAACUAGGAGCACCAUUUCGCUGCCAGUGAAGAAAUGAACAAAGAAUAUCUGGGCCAGGCAGGCAUCAAAAGAAAUAGUCUUGCGCUCAACCAGAAAGUCUGUAAUCAUUUUAAGGGUA [U2A A68U] stands 0.46. Take GAUAACGGUCAUAGGCCAUGGAAACUAGGAGCACCAUUUCGCUGCCAGUGAAGAAAUGAACAAAGAAGAUCUGGGCCAGGCAGGCAUCAAAAGAAAUAGUCUUGCGCUCAACCAGAAAGUCUGUAAUCAUUUUAAGGGUA [U2A A68G]: the self-cleavage was 0.8. Under GAUAACGGUCAUAGGCCAUGGAAACUAGGAGCACCAUUUCGCUGCCAGUGAAGAAGUGAACAAAGAAAAUCUGGGCCAGGCAGGCAUCAAAAGAAAUAGUCUUGCGCUCAACCAGAAAGUCUGUAAUCAUUUUAAGGGUA [U2A A56G] stands 0.89. Regarding GAUAACGGUCAUAGGCCAUGGAAACUAGGAGCACCAUUUCGCUGCCAGUGAAGAAAUGAACAAAGAAAAUCUGGGCCAGGCAGGCAUCAAAAGAAAUAGUCUUGCGCUCAACCAGUAAGUCUGUAAUCAUUUUAAGGGUA [U2A A116U], the self-cleavage is 0.18. On to GAUAACGGUCAUAGGCCAUGGAAACUAGGAGCACCAUUUCGCUGCCAGUGAAGAAAUGAACAAAGAAAAUCUGGGCCAGGCAGGCAUCAAAAGAAAUAGUCUUGCGCUCAACCAGGAAGUCUGUAAUCAUUUUAAGGGUA [U2A A116G], for which the self-cleavage was determined as 0.75. For GAUAACGGUCAUAGGCCAUGGAAACUAGGAGCACCAUUUCGCUGCCAGUGAAGAAAUGAACAAAGAAAAUCUGGGCCAGGCAGGCAUCAAAAGAAAUGGUCUUGCGCUCAACCAGAAAGUCUGUAAUCAUUUUAAGGGUA [U2A A98G] the value was 0.1; for UUUAACGGUCAUAGGCCAUGGAAACUAGGAGCACCAUUUCGCUGCCAGUGAAGAAAUGAACAAAGAAAAUCUGGGCCAGGCAGGCAUCAAAAGGAAUAGUCUUGCGCUCAACCAGAAAGUCUGUAAUCAUUUUAAGGGUA [G1U A94G], 0.76; for UUUAACGGUCAUAGGCCAUGGAAACUAGGAGCACCAUUUCGCUGCCAGUGAAGAAAUGAACAGAGAAAAUCUGGGCCAGGCAGGCAUCAAAAGAAAUAGUCUUGCGCUCAACCAGAAAGUCUGUAAUCAUUUUAAGGGUA [G1U A63G], 0.92. For GAUAACGGUCAUAGGCCAUGGAAACUAGGAGCACCAUUUCGCUGCCAGUGAAGAAAUGAACAAAGAAAAUCUGGGCCAGGCAGGCAUCAAAAGAAAUAGUCUUGCGCUCAACCAGAAAGUCUGUAAUCAUUUUGAGGGUA [U2A A134G] the value was 1.65; for UUUAACGGUCAUAGGCCAUGGAAACUAGGAGCACCAUUUCGCUGCCAGUGAAGAAAUGAACAAAGAAAAUCUGGGCCAGGCAGGCAUCAAAAGAGAUAGUCUUGCGCUCAACCAGAAAGUCUGUAAUCAUUUUAAGGGUA [G1U A95G], 0.56.

On to GAUAACGGUCAUAGGCCAUGGAAACUAGGAGCACCAUUUCGCUGCCAGUGAAGAAAUGAACAAAGAAAAUCUGGGCCAGGCAGGCAUCAAAAGAUAUAGUCUUGCGCUCAACCAGAAAGUCUGUAAUCAUUUUAAGGGUA [U2A A95U], for which the self-cleavage was found to be 0.86. Under GAUAACGGUCAUAGGCCAUGGAAACUAGGAGCACCAUUUCGCUGCCAGUGAAGAAAUGAACAAAGAAAAUCUGGGCCAGGCAGGCAUCAAAAGAGAUAGUCUUGCGCUCAACCAGAAAGUCUGUAAUCAUUUUAAGGGUA [U2A A95G] stands 1.21; under GAUAACGGUCAUAGGCCUUGGAAACUAGGAGCACCAUUUCGCUGCCAGUGAAGAAAUGAACAAAGAAAAUCUGGGCCAGGCAGGCAUCAAAAGAAAUAGUCUUGCGCUCAACCAGAAAGUCUGUAAUCAUUUUAAGGGUA [U2A A18U], 1.37. For GAUAACGGUCAUAGGCCAUGGAUACUAGGAGCACCAUUUCGCUGCCAGUGAAGAAAUGAACAAAGAAAAUCUGGGCCAGGCAGGCAUCAAAAGAAAUAGUCUUGCGCUCAACCAGAAAGUCUGUAAUCAUUUUAAGGGUA [U2A A23U] the value was 1.24. Under GAUAACGGUCAUAGGCCAUGGAAACUAGGAGCACCAUUUCGCUGCCAGUGAAGAAAUGAACAAAGAAAAUCUGGGCCAGGCAGGCAUCAAAAGAAAUAGUCUUGCGCUCAACCAGAGAGUCUGUAAUCAUUUUAAGGGUA [U2A A117G] stands 0.59. Consider GAUAACGGUCAUAGGCCAUGGAAACUAGGAGCACCAUUUCGCUGCCAGUGAAGAAAUGAACAAAGAAAAUCUGGGCCAGGCAGGCAUCAAAAGAAAUAGUCUUGCGCUCAACCAGAUAGUCUGUAAUCAUUUUAAGGGUA [U2A A117U], for which the self-cleavage is 0.49. In the case of UUUAACGGUCAUAGGCCAUGGAAACUAGGAGCACCAUUUCGCUGCCAGUGAAGAAAUGAACAAAGAAAAUCUGGGCCAGGCAGGCAUCAAAAGAAAUAGUCUUGCGCUCAACCAGAAAGUCUGUAAUCAUUUUAAGGGCA [G1U U139C], the self-cleavage is 0.98. For GAUAACGGUCAUAGGCCAUGGAAACUAGGAGCACCAUUUCGCUGCCAGUGAAGAAAUGAACGAAGAAAAUCUGGGCCAGGCAGGCAUCAAAAGAAAUAGUCUUGCGCUCAACCAGAAAGUCUGUAAUCAUUUUAAGGGUA [U2A A62G] the value was 1.23; for GAUAACGGUCAUAGGCCAUGGAAACUAGGAGCACCAUUUCGCUGCCAGUGAAGGAAUGAACAAAGAAAAUCUGGGCCAGGCAGGCAUCAAAAGAAAUAGUCUUGCGCUCAACCAGAAAGUCUGUAAUCAUUUUAAGGGUA [U2A A54G], 0.63. In the case of GAUAACGGUCAUAGGCCAUGGAAACUAGGAGCACCAUUUCGCUGCCAGUGAAGAAAUGAACAAAGAAAGUCUGGGCCAGGCAGGCAUCAAAAGAAAUAGUCUUGCGCUCAACCAGAAAGUCUGUAAUCAUUUUAAGGGUA [U2A A69G], the self-cleavage is 1.62. For UUUAACGGUCAUAGGCCAUGGAAACUAGGAGCACCAUUUCGCUGCCAGUGAAGAAAUGAACAAAGAAAUUCUGGGCCAGGCAGGCAUCAAAAGAAAUAGUCUUGCGCUCAACCAGAAAGUCUGUAAUCAUUUUAAGGGUA [G1U A69U] the value was 1.22. For GAUAACGGUCAUAGGCCAUGGAAACUAGGAGCACCAUUUCGCUGCCAGUGAAGAAAUGAACAAAGAAAAUCUGGGCCAGGCAGGCAUCAAAAGAAAUAGUCUUGCGCUCAACCUGAAAGUCUGUAAUCAUUUUAAGGGUA [U2A A114U] the value was 0.33; for GAUAACGGUUAUAGGCCAUGGAAACUAGGAGCACCAUUUCGCUGCCAGUGAAGAAAUGAACAAAGAAAAUCUGGGCCAGGCAGGCAUCAAAAGAAAUAGUCUUGCGCUCAACCAGAAAGUCUGUAAUCAUUUUAAGGGUA [U2A C10U], 0.88; for GAUAACGGUCAUAGGCCAUGGGAACUAGGAGCACCAUUUCGCUGCCAGUGAAGAAAUGAACAAAGAAAAUCUGGGCCAGGCAGGCAUCAAAAGAAAUAGUCUUGCGCUCAACCAGAAAGUCUGUAAUCAUUUUAAGGGUA [U2A A22G], 1.33. Under GAUAACGGUCAUAGGCCAUGGAAACUAGGAGCACCAUUUCGCUGCCAGUGAAGAAAUGAACAAGGAAAAUCUGGGCCAGGCAGGCAUCAAAAGAAAUAGUCUUGCGCUCAACCAGAAAGUCUGUAAUCAUUUUAAGGGUA [U2A A64G] stands 1.24. Take UUUAACGGUCAUAGGCCAUGGAAACUAGGAGCACCAUUUCGCUGCCAGUGAAGGAAUGAACAAAGAAAAUCUGGGCCAGGCAGGCAUCAAAAGAAAUAGUCUUGCGCUCAACCAGAAAGUCUGUAAUCAUUUUAAGGGUA [G1U A54G]: the self-cleavage is 1.44.

As to GAUAACGGUCAUAGGCCAUGGAAACUAGGAGCACCAUUUCGCUGCCAGUGAAGAAAUGAACAAAGAAAAUCUGGGCCAGGCAGGCAUCAUAAGAAAUAGUCUUGCGCUCAACCAGAAAGUCUGUAAUCAUUUUAAGGGUA [U2A A90U], the self-cleavage stood at 1.25. Under GAUAACGGUCAUAGGCCAUGGAAACUAGGAGCACCAUUUCGCUGCCUGUGAAGAAAUGAACAAAGAAAAUCUGGGCCAGGCAGGCAUCAAAAGAAAUAGUCUUGCGCUCAACCAGAAAGUCUGUAAUCAUUUUAAGGGUA [U2A A47U] stands 0.78; under GAUAACGGUCAUAGGCCAUGGAAACUAGGAGCACCAUUUCGCUGCCGGUGAAGAAAUGAACAAAGAAAAUCUGGGCCAGGCAGGCAUCAAAAGAAAUAGUCUUGCGCUCAACCAGAAAGUCUGUAAUCAUUUUAAGGGUA [U2A A47G], 1.42. Under GAUAACGGUCAUAGGCCAUGGAAACUAGGAGCACCAUUUCGCUGCCAGUGAAGAAAUGAACAAAGAAAAUCUGGGCCAGGCAGGCAUCGAAAGAAAUAGUCUUGCGCUCAACCAGAAAGUCUGUAAUCAUUUUAAGGGUA [U2A A89G] stands 1.07. Under GAUAACGGUCAUAGGCCAUGGAAACUAGGAGCACCAUUUCGCUGCCAGUGAAGAAAUGAACAAAAAAAAUCUGGGCCAGGCAGGCAUCAAAAGAAAUAGUCUUGCGCUCAACCAGAAAGUCUGUAAUCAUUUUAAGGGUA [U2A G65A] stands 0.89; under GAUAACGGUCAUAGGCCAUGGAAACUAGGAGCACCAUUUCGCUCCCAGUGAAGAAAUGAACAAAGAAAAUCUGGGCCAGGCAGGCAUCAAAAGAAAUAGUCUUGCGCUCAACCAGAAAGUCUGUAAUCAUUUUAAGGGUA [U2A G44C], 0.79; under GAUAACGGUCAUAGGCCAUGGAAACUAGGAGCACCAUUUCGCUGCCAGUGAAGAAAUGAACAAAGAAAAUCUGGGCCAGGCAGGCAUCAAAAGAAAUAGUCUUGCGCUCAACCAGAAAGUCUGUAGUCAUUUUAAGGGUA [U2A A126G], 0.81. Regarding GAUAACGGUCAUAGGCCAUGGAAACUAGGAGCACCAUUUCGCUGCCAGUGAAGAAAUGACCAAAGAAAAUCUGGGCCAGGCAGGCAUCAAAAGAAAUAGUCUUGCGCUCAACCAGAAAGUCUGUAAUCAUUUUAAGGGUA [U2A A60C], the self-cleavage is 1.97. Take GAUAACGGUCAUAGGCCAUGGAAACUAGGAGCACCAUUUCGCUGCCAGUGAAGAAAUGAGCAAAGAAAAUCUGGGCCAGGCAGGCAUCAAAAGAAAUAGUCUUGCGCUCAACCAGAAAGUCUGUAAUCAUUUUAAGGGUA [U2A A60G]: the self-cleavage was 1.13. GAUAACGGUCAUAGGCCAUGGAAACUAGGAGCACCAUUUCGCUGCCAGUGGAGAAAUGAACAAAGAAAAUCUGGGCCAGGCAGGCAUCAAAAGAAAUAGUCUUGCGCUCAACCAGAAAGUCUGUAAUCAUUUUAAGGGUA [U2A A51G]: the self-cleavage was determined as 0.51. As for UUUAACGGUCAUAGGCCAUGGAAACUAGGAGCACCAUUUCGCUGCCAGUGAAGAAAUGAACAAAGAAAAUCUGGGCCAGGCAGGCAUCAAAAGAAAUAGUCUUGCGCUCAACCAGAAAGUCUGUAAUCAUUUUAAGGGUA [G1U], the self-cleavage was found to be 1.07.
